B1: HDV Ribozyme (parent)
chain: GGCCGGCAUGGUCCCAGCCUCCUCGCUGGCGCCGGCUGGGCAACAUUCCGAGGGGACCGUCCCCUCGGUAAUGGCGAAUGGGACCCA

Variants of: B1
Assay: self-cleavage, relative activity (ratio to wild type); higher = more cleavage; co-transcriptional

Variant	self-cleavage
G38U A87U	0.255
G38U A87C	0.231
G38U G81U	0.0545
G38C C62G	0.208
G38C C62A	0.354
U37G G55U	0.214
U37G G55C	0.141
U37G G55A	0.0831
U37G G82C	0.128
U37G G82U	0.0773
G39A C49U	0.519
G38U U65A	0.292
G38A C61U	0.0573
G39A G80U	0.178
G39A G80A	0.229
G38U A77G	0.0923
G38C U72G	0
G38C U72A	0.158
G38A G73A	0.0875
G38C C57G	0.356
G39A C44U	0.185
G38U G73C	0.169
G38U G73U	0.146
G38U G73A	0.149

Variant	self-cleavage
G38U C64G	0.177
G38U C64U	0.25
G38U C64A	0.257
G38A G54A	0.273
G39A A51G	0.458
G39A A51U	0.521
G39A C75G	0.143
G38U G82U	0.129
G38U G82C	0.218
G38A A87C	0.0881
G38A A87G	0.219
G38C U47G	0.225
G38A U79A	0.0831
G39A A83G	0.507
G39A A83U	0.185
G38A G67C	0.113
G38U U60C	0.374
G38U U60A	0.175
G38U U60G	0.13
U37G G38C	0.192
G39A G73C	0.205
G38A A42U	0
G38A A42C	0.148
G38A A42G	0.095

Variant	self-cleavage
U37G G73C	0.0791
U37G G73A	0
G38C C63U	0.194
G39A A45C	0.188
G38A G39C	0.0923
G38A G39A	0.0963
G38U G54U	0.325
G38U G54A	0.227
G38C A78U	0.0308
G38U G59U	0.284
G38A U69G	0.166
G38A U69A	0.148
G38C A71C	0.231
G38A G74U	0.0934
G38A G74A	0.0755
G39A C85G	0.523
G39A G81U	0.147
G39A C86G	0.534
G39A C86U	0.513
G38U G39A	0.0415
U37G G68U	0.128
U37G G68C	0.246
U37G G68A	0.246
G39A G53C	0.383

Variant	self-cleavage
G39A G53A	0.632
G39A A43C	0.185
G39A A43G	0.0707
G38C U79A	0.151
G38C U79G	0
G38A G80U	0.156
G38A G80A	0.0372
G39A C64G	0.492
G39A C64U	0.484
G39A C64A	0.458
G38U G80C	0.108
G38U G80A	0.102
G38U G80U	0.0802
G38A C41A	0.185
G38A C41U	0.354
G38C G52U	0.249
G38C G52C	0
G38C C85G	0.237
G38C C85A	0.0997
G38C C61U	0.136
G38C G67A	0.194
G38C G67C	0.157
G38C G67U	0.366
G39A C61G	0.337

Variant	self-cleavage
G38A C62A	0.0733
G39A G68A	0.415
G38A A56G	0.108
G38C C84A	0.18
G38C G59U	0.233
G38C G59A	0.199
G38A G50A	0.0886
G38A G50U	0.157
G38C G76U	0.47
G38C G76C	0.122
G38C G76A	0.205
G38U C75U	0.163
G38U C75G	0.0707
G39A C62U	0.508
G39A G50C	0.504
G38U G68U	0.119
U37G G40A	0.302
U37G G40C	0.0519
G38A C66G	0.109
G38A C66U	0.128
G38A G52U	0.245
G39A A56G	0.509
G38A A43C	0.0449
U37G G67C	0.229

Variant	self-cleavage
U37G G67U	0.18
G38A A77C	0.0354
G38C C48U	0.161
G38C C48G	0.133
G38C C48A	0.104
G38C G40C	0.0405
G38C G40A	0.0978
U37G U46G	0.332
U37G U46A	0
U37G U72G	0.115
G38C C44G	0.222
G38C G82A	0.0594
G38C U46A	0.101
U37G U65C	0.123
G39A A78G	0.131
G39A A78U	0.201
G39A A78C	0.0563
G38A G76C	0.0767
G38A G76U	0.202
G38A G76A	0.112
G38U U47A	0.109
G38A C48U	0.115
G38A C48A	0.121
G38A C57U	0.211

Variant	self-cleavage
G38A C57A	0.128
G38A C57G	0.224
G38A A45C	0.0804
U37G G81A	0
U37G G53U	0.157
G39A U46A	0.0773
G38U G53A	0.369
G38U G53U	0.342
G38U G53C	0.434
G38C A43U	0.116
G38C A43G	0.219
G38U C44A	0.16
G39A U69C	0.609
G39A U69A	0.443
G39A U69G	0.305
G38C	0.239
G38U	0.255
G38A	0.157
G38U A43U	0.0963
G38A G40A	0.262
G38A G40U	0.149
G38A G40C	0.138
G39A A87U	0.531
G38C A56U	0.262

Variant	self-cleavage
G38C A56G	0.197
G38C A56C	0.181
G38C C49U	0.277
G39A G54A	0.54
G38A C58U	0.175
G38A C85G	0.157
G38C A51G	0.309
G38C U65A	0.341
G38U C48U	0.141
G38U C48A	0.0978
G39A G82C	0.128
G39A G82A	0.136
G38U C66U	0.175
G38C G74U	0.0739
G38U C86U	0.241
G38C A77G	0.0536
G38U G52A	0.305
U37G C86A	0.185
G38A U60G	0.0386
G38A U60C	0.0272
G38U U69C	0.192
G38U U69A	0.256
G38U U69G	0.272
G38C G80U	0.0314

Variant	self-cleavage
G38C G80C	0.145
G38C G80A	0.131
G38C A45U	0.213
G38C A45C	0.0678
G38C A45G	0.227
G38A A78U	0.0297
G38A A78C	0.138
G38A A78G	0.0755
G39A G55C	0.443
G39A U72A	0.133
G38A U47C	0.0767
G38U C61U	0.174
G38U G55A	0.137
G38C G81A	0
G39A U79C	0.0723
G39A U79A	0.162
G39A U79G	0.262
G38C U60G	0.113
G39A A70U	0.496
G38C U69A	0.095
G38C U69G	0.356
U37G U69A	0.119
U37G U69C	0.128
U37G U69G	0.0723

Variant	self-cleavage
G39A G67C	0.665
G39A C57U	0.665
G39A C57A	0.41
G38U G67C	0.197
G38C C58G	0.237
G38C C58A	0.361
G38U C85G	0.295
U37G G80C	0.0449
U37G G80A	0.0308
U37G G80U	0.203
G38C G50C	0.35
G38A C75G	0.0302
G38A C75U	0.0443
G38U C41A	0.407
G38U C41U	0.623
G38C G53U	0.266
G38C C66U	0.153
U37G U47A	0.158
U37G U47C	0.128
G39A U60C	0.746
G39A U60A	0.268
G38C G54A	0.132
G38C G54C	0.237
G38C A87G	0.155

Variant	self-cleavage
G38C A87U	0.252
G38U C49A	0.264
G38U C49G	0.0739
G39A C66G	0.437
G39A C66A	0.441
G39A C41U	0.793
G39A C41G	0.228
G39A C41A	0.471
G38U U46C	0.135
G38U U46G	0.0755
G38U U79C	0.112
G38U U79A	0
G38U U79G	0.208
G38A G55U	0.19
G38A G55A	0.0821
G39A U47G	0.185
G38A U72A	0.155
G38A U72G	0.0415
G39A G52C	0.394
G39A G52U	0.478
G39A G52A	0.405
G38C G39U	0.0396
G38C G39A	0.113
G38U A83U	0.0959

Variant	self-cleavage
G38U A83C	0.0773
G38A G53U	0.0567
G38A G53C	0.0678
G38A A83U	0.13
G38A G82U	0.0405
G38U A78G	0.203
U37G G74C	0.0361
G39A G74C	0.147
G39A G74A	0.172
U37G U60G	0.0831
G38C C75G	0.104
G38C C75A	0
G39A C58A	0.475
G39A C58U	0.443
G39A C48A	0.609
G39A C48G	0.507
G39A C48U	0.504
G38A C84A	0.185
G38U C62U	0.337
G38C G73U	0.13
U37G G50C	0.185
U37G G50A	0.113
U37G G50U	0.135
U37G G39U	0

Variant	self-cleavage
G38C G68C	0.193
G38C G68A	0.172
G38C G68U	0.272
G38U A70C	0.158
G38U A70G	0.227
G38A C86A	0.247
G38A C86U	0.138
G38C C64G	0.415
U37G G52U	0.198
G39A U65A	0.396
G39A U65C	0.463
G38C G55A	0.124
G38C G55C	0.46
G38U C58G	0.306
G38U C58A	0.164
G38C A70U	0.185
G38C A70C	0.291
G39A G76C	0.57
G39A G76U	0.873
G39A C84A	0.415
G39A C84U	0.321
G39A A71C	0.332
G39A A71G	0.332
G38U A42U	0.261

Variant	self-cleavage
G38U A42G	0
G39A	0.51
U37G U79G	0.115
U37G U79C	0
G39A G59A	0.426
G38U G40A	0.222
G38U G40U	0.19
G38A G81U	0.176
G38A G81C	0.0712
G38C C86A	0.136
G38C C86U	0.145
G38U U72C	0.0978
G38U U72G	0.145
G38U C57G	0.38
G38U C57A	0.323
G38U C57U	0.126
G38A A51C	0.212
G38A A51U	0.268
G38U C84U	0.0821
G38A U65A	0.273
G38C A42U	0.208
G38C A42C	0.104
